From patent US20140221282A1, “LONG DURATION DUAL HORMONE CONJUGATES” (priority 2011, published 2014) come the findings set out here.

Ends that are not written are not given here. Y‑shaped mPEG40KD = Y-shaped methoxy-PEG of 40 kDa attached to the Lys side chain; mPEG40KD = methoxy-PEG of 40 kDa

Chain of amylin receptor of rat nucleus accumbens membranes (rat) (P32214 other isoform, or with tags, fused parts or gaps, chain 1 of 2): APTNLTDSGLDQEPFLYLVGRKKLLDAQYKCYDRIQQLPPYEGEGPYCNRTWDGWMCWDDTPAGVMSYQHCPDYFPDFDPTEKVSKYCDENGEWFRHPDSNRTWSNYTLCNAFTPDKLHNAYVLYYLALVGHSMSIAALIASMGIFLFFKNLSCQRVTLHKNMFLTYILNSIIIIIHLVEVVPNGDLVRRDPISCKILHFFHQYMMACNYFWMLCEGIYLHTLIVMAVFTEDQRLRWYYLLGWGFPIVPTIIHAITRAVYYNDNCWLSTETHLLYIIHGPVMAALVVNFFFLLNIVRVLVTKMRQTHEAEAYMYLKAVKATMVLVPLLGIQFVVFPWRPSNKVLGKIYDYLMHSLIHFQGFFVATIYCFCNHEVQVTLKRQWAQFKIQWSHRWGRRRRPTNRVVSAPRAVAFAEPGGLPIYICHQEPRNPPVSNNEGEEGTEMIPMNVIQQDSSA
Chain of amylin receptor of rat nucleus accumbens membranes (rat) (Q9JJ74 27-148, chain 2 of 2, further chain): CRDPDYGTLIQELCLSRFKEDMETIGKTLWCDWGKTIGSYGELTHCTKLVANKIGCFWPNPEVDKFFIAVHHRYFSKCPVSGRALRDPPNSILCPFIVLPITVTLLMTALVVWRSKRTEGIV

This assay has as its target amylin receptor of rat nucleus accumbens membranes (rat). Put plainly: competition with 125I-rat amylin, rat nucleus accumbens membranes.
The IC50 is the concentration at which inhibition is half-maximal. Higher therefore signals lower potency. With mPEG40KD-CNTATCATQRLANFLVRSSNNLGPVLPPTNVGSNTY-NH2 (ends and bridges not checked) [mPEG40KD-Cmpd 50], the IC50 stood at 78 nM.

As for CNTATCATQRLANFLVRSSNNLGPVLPPTNVGSNTY-NH2 (ends and bridges not checked) [[des-Lys^1]-Cmpd 49], the half-inhibitory concentration (IC50) worked out at 0.42 nM.

In turn, KCNTATCATQRLANFLVRSSNNLGPK(Y‑shaped mPEG40KD)LPPTNVGSNTY-NH2 (ends and bridges not checked) [[K^26(Y-shaped-mPEG40KD)]-Cmpd 53] yielded a concentration for half-maximal inhibition (IC50) of 470 nM.

KCNTATCATQRLANFLVRSSNNLGPK(mPEG40KD)LPPTNVGSNTY-NH2 (ends and bridges not checked) [[K^26(mPEG40KD)]-Cmpd 53] yielded an IC50 of 66 nM.
